This series deals with the molecule itself. As to the kind of experiment: SEC + other: cryo-EM 2D class averages; truncated modifying region purified by Ni-NTA and Superdex 200 increase 10/300; 2D classes of elution fraction 3.

B1: isolated modifying region of hFASN expressed and purified as an independent construct (G855 to G2511) (domain or fragment, human, UniProt P49327 855-2511, looked up)
chain: GSPSAAIYNIDTSSESPDHYLVDHTLDGRVLFPATGYLSIVWKTLARALGLGVEQLPVVFEDVVLHQATILPKTGTVSLEVRLLEASRAFEVSENGNLVVSGKVYQWDDPDPRLFDHPESPTPNPTEPLFLAQAEVYKELRLRGYDYGPHFQGILEASLEGDSGRLLWKDNWVSFMDTMLQMSILGSAKHGLYLPTRVTAIHIDPATHRQKLYTLQDKAQVADVVVSRWLRVTVAGGVHISGLHTESAPRRQQEQQVPILEKFCFTPHTEEGCLSERAALQEELQLCKGLVQALQTKVTQQGLKMVVPGLDGAQIPRDPSQQELPRLLSAACRLQLNGNLQLELAQVLAQERPKLPEDPLLSGLLDSPALKACLDTAVENMPSLKMKVVEVLAGHGHLYSRIPGLLSPHPLLQLSYTATDRHPQALEAAQAELQQHDVAQGQWDPADPAPSALGSADLLVCNCAVAALGDPASALSNMVAALREGGFLLLHTLLRGHPLGDIVAFLTSTEPQYGQGILSQDAWESLFSRVSLRLVGLKKSFYGSTLFLCRRPTPQDSPIFLPVDDTSFRWVESLKGILADEDSSRPVWLKAINCATSGVVGLVNCLRREPGGNRLRCVLLSNLSSTSHVPEVDPGSAELQKVLQGDLVMNVYRDGAWGAFRHFLLEEDKPEEPTAHAFVSTLTRGDLSSIRWVCSSLRHAQPTCPGAQLCTVYYASLNFRDIMLATGKLSPDAIPGKWTSQDSLLGMEFSGRDASGKRVMGLVPAKGLATSVLLSPDFLWDVPSNWTLEEAASVPVVYSTAYYALVVRGRVRPGETLLIHSGSGGVGQAAIAIALSLGCRVFTTVGSAEKRAYLQARFPQLDSTSFANSRDTSFEQHVLWHTGGKGVDLVLNSLAEEKLQASVRCLATHGRFLEIGKFDLSQNHPLGMAIFLKNVTFHGVLLDAFFNESSADWREVWALVQAGIRDGVVRPLKCTVFHGAQVEDAFRYMAQGKHIGKVVVQVLAEEPEAVLKGAKPKLMSAISKTFCPAHKSYIIAGGLGGFGLELAQWLIQRGVQKLVLTSRSGIRTGYQAKQVRRWRRQGVQVQVSTSNISSLEGARGLIAEAAQLGPVGGVFNLAVVLRDGLLENQTPEFFQDVCKPKYSGTLNLDRVTREACPELDYFVVFSSVSCGRGNAGQSNYGFANSAMERICEKRRHEGLPGLAVQWGAIGDVGILVETMSTNDTIVSGTLPQRMASCLEVLDLFLNQPHMVLSSFVLAEKAAAYRDRDSQRDLVEAVAHILGIRDLAAVNLDSSLADLGLDSLMSVEVRQTLERELNLVLSVREVRQLTLRKLQELSSKADEASELACPTPKEDGLAQQQTQLNLRSLLVNPEGPTLMRLNSVQSSERPLFLVHPIEGSTTVFHSLASRLSIPTYGLQCTRAAPLDSIHSLAAYYIDCIRQVQPEGPYRVAGYSYGACVAFEMCSQLQAQQSPAPTHNSLFLFDGSPTYVLAYTQSYRAKLTPGCEAEAETEAICFFVQQFTDMEHNRVLEALLPLKGLEERVAAAVDLIIKSHQGLDRQELSFAARSFYYKLRAAEQYTPKAKYHGNVMLLRAKTGGAYGEDLGADYNLSQVCDGKVSVHVIEGDHRTLLEGSGLESIISIIHSSLAEPRVSVREG
notes: human fatty acid synthase (FASN), residues G855 to G2511, modifying region (DH, ΨME, ΨKR, ER, KR, ACP, TE); also called truncated modifying region; truncated hFASN modifying region; source: HEK293F, transfected (pcDNA3.1, gene synthesized by GenScript), purified (Ni-NTA, Superdex 200)
In the case of B1, the “stoichiometry N” value was 2.

Values taken from article PMC10258763, “Atomic model for core modifying region of human fatty acid synthase in complex with Denifanstat” (Nature Communications, 2023).
